We go through nine molecules from patent US20150344570A1 (published 2015).

The target in experiment [1] is T1, FcγRIa extracellular domain with C-terminal His tag (human, UniProt P12314 16-292).
T1 construct: extracellular domain; soluble analyte in Biacore; also called FcgRI; not shown: His tag at the C terminus
The experiment in a line: SPR, binding relative to GpH7-A5/GpH7-B3/GpL16-k0 = 100. A general note: Surface plasmon resonance follows binding to a sensor surface in real time, without labels.

The target in experiment [2] is T2, FcγRIIb extracellular domain with C-terminal His tag (human, UniProt P31994 43-217).
T2 construct: extracellular domain; soluble analyte in Biacore; also called FcgRIIb; not shown: His tag at the C terminus
T2 sequence (looked up): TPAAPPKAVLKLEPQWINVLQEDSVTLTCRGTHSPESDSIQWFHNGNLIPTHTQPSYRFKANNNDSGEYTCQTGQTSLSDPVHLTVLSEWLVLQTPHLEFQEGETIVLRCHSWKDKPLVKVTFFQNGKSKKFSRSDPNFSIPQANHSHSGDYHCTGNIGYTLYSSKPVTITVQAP
The description is as above.

T1 sequence (P12314 16-292): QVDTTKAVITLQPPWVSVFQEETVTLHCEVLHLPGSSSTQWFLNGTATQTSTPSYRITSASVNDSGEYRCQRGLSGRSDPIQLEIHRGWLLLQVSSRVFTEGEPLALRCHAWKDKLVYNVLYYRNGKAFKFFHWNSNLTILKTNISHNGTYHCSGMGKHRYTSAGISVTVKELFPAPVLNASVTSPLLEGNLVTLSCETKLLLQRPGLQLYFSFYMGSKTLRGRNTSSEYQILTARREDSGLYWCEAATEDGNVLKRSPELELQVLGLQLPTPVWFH

B1: GpH7-A5/GpH7-B3 variant A330_11K/GpL16-k0 (antibody, human IgG1, kappa)
heavy 1: not shown
heavy 2: not shown
light: DIVMTQSPLSLPVTPGEPASISCQASESLVHSNRNTYLHWYLQKPGQSPQLLIYKVSNRFSGVPDRFSGSGSGTDFTLKISRVEAEDVGVYYCSQNTHVPPTFGQGTKVEIERTVAAPSVFIFPPSDEQLKSGTASVVCLLNNFYPREAKVQWKVDNALQSGNSQESVTEQDSKDSTYSLSSTLTLSKADYEKHKVYACEVTHQGLSSPVTKSFNRGEC
notes: change in the GpH7-B3 H chain only; also called He Ab
For the molecule B1, the He/Con_1a in experiment [1] is 103 % of control. The He/Con_2b in experiment [2] is 95 % of control.

B2: GpH7-A5/GpH7-B3 variant A330_19Q/GpL16-k0 (antibody, human IgG1, kappa)
heavy 1: not shown
heavy 2: not shown
light: DIVMTQSPLSLPVTPGEPASISCQASESLVHSNRNTYLHWYLQKPGQSPQLLIYKVSNRFSGVPDRFSGSGSGTDFTLKISRVEAEDVGVYYCSQNTHVPPTFGQGTKVEIERTVAAPSVFIFPPSDEQLKSGTASVVCLLNNFYPREAKVQWKVDNALQSGNSQESVTEQDSKDSTYSLSSTLTLSKADYEKHKVYACEVTHQGLSSPVTKSFNRGEC
notes: as for B1
Turning to B2, in experiment [1], the He/Con_1a is 105 % of control. The He/Con_2b in experiment [2] was 90.8 % of control.

B3: GpH7-A5/GpH7-B3 variant A330_20W/GpL16-k0 (antibody, human IgG1, kappa)
heavy 1: not shown
heavy 2: not shown
light: DIVMTQSPLSLPVTPGEPASISCQASESLVHSNRNTYLHWYLQKPGQSPQLLIYKVSNRFSGVPDRFSGSGSGTDFTLKISRVEAEDVGVYYCSQNTHVPPTFGQGTKVEIERTVAAPSVFIFPPSDEQLKSGTASVVCLLNNFYPREAKVQWKVDNALQSGNSQESVTEQDSKDSTYSLSSTLTLSKADYEKHKVYACEVTHQGLSSPVTKSFNRGEC
notes: as for B1
On to B3, for which the He/Con_1a in experiment [1] is 108 % of control. Further, in experiment [2], the He/Con_2b is 76.1 % of control.

B4: GpH7-A5/GpH7-B3 variant E333_02A/GpL16-k0 (antibody, human IgG1, kappa)
heavy 1: not shown
heavy 2: not shown
light: DIVMTQSPLSLPVTPGEPASISCQASESLVHSNRNTYLHWYLQKPGQSPQLLIYKVSNRFSGVPDRFSGSGSGTDFTLKISRVEAEDVGVYYCSQNTHVPPTFGQGTKVEIERTVAAPSVFIFPPSDEQLKSGTASVVCLLNNFYPREAKVQWKVDNALQSGNSQESVTEQDSKDSTYSLSSTLTLSKADYEKHKVYACEVTHQGLSSPVTKSFNRGEC
notes: as for B1
As for B4, the He/Con_1a in experiment [1] is 103 % of control. Moreover, the He/Con_2b in experiment [2] is 83.8 % of control.

B5: GpH7-A5/GpH7-B3 variant E333_08L/GpL16-k0 (antibody, human IgG1, kappa)
heavy 1: not shown
heavy 2: not shown
light: DIVMTQSPLSLPVTPGEPASISCQASESLVHSNRNTYLHWYLQKPGQSPQLLIYKVSNRFSGVPDRFSGSGSGTDFTLKISRVEAEDVGVYYCSQNTHVPPTFGQGTKVEIERTVAAPSVFIFPPSDEQLKSGTASVVCLLNNFYPREAKVQWKVDNALQSGNSQESVTEQDSKDSTYSLSSTLTLSKADYEKHKVYACEVTHQGLSSPVTKSFNRGEC
notes: as for B1
Turning to B5, the He/Con_1a in experiment [1] was 102 % of control. The He/Con_2b in experiment [2] is 95 % of control.

B6: GpH7-A5/GpH7-B3 variant E333_06M/GpL16-k0 (antibody, human IgG1, kappa)
heavy 1: not shown
heavy 2: not shown
light: DIVMTQSPLSLPVTPGEPASISCQASESLVHSNRNTYLHWYLQKPGQSPQLLIYKVSNRFSGVPDRFSGSGSGTDFTLKISRVEAEDVGVYYCSQNTHVPPTFGQGTKVEIERTVAAPSVFIFPPSDEQLKSGTASVVCLLNNFYPREAKVQWKVDNALQSGNSQESVTEQDSKDSTYSLSSTLTLSKADYEKHKVYACEVTHQGLSSPVTKSFNRGEC
notes: as for B1
B6: in experiment [1], the He/Con_1a is 102 % of control. The He/Con_2b in experiment [2] is 85.4 % of control.

B7: GpH7-A5/GpH7-B3 variant E333_04F/GpL16-k0 (antibody, human IgG1, kappa)
heavy 1: not shown
heavy 2: not shown
light: DIVMTQSPLSLPVTPGEPASISCQASESLVHSNRNTYLHWYLQKPGQSPQLLIYKVSNRFSGVPDRFSGSGSGTDFTLKISRVEAEDVGVYYCSQNTHVPPTFGQGTKVEIERTVAAPSVFIFPPSDEQLKSGTASVVCLLNNFYPREAKVQWKVDNALQSGNSQESVTEQDSKDSTYSLSSTLTLSKADYEKHKVYACEVTHQGLSSPVTKSFNRGEC
notes: as for B1
With B7, in experiment [1], the He/Con_1a is 102 % of control. In addition, the He/Con_2b in experiment [2] is 94.6 % of control.

B8: GpH7-A5/GpH7-B3 variant E333_13S/GpL16-k0 (antibody, human IgG1, kappa)
heavy 1: not shown
heavy 2: not shown
light: DIVMTQSPLSLPVTPGEPASISCQASESLVHSNRNTYLHWYLQKPGQSPQLLIYKVSNRFSGVPDRFSGSGSGTDFTLKISRVEAEDVGVYYCSQNTHVPPTFGQGTKVEIERTVAAPSVFIFPPSDEQLKSGTASVVCLLNNFYPREAKVQWKVDNALQSGNSQESVTEQDSKDSTYSLSSTLTLSKADYEKHKVYACEVTHQGLSSPVTKSFNRGEC
notes: as for B1
In the case of B8, in experiment [1], the He/Con_1a is 103 % of control. Further, the He/Con_2b in experiment [2] is 81.8 % of control.

B9: GpH7-A5/GpH7-B3 variant E333_03V/GpL16-k0 (antibody, human IgG1, kappa)
heavy 1: not shown
heavy 2: not shown
light: DIVMTQSPLSLPVTPGEPASISCQASESLVHSNRNTYLHWYLQKPGQSPQLLIYKVSNRFSGVPDRFSGSGSGTDFTLKISRVEAEDVGVYYCSQNTHVPPTFGQGTKVEIERTVAAPSVFIFPPSDEQLKSGTASVVCLLNNFYPREAKVQWKVDNALQSGNSQESVTEQDSKDSTYSLSSTLTLSKADYEKHKVYACEVTHQGLSSPVTKSFNRGEC
notes: as for B1
As to B9, the He/Con_1a in experiment [1] was 105 % of control. The He/Con_2b in experiment [2] is 93.2 % of control.
